Measured values reported in patent US20100034826A1 (Bristol-Myers Squibb, published 2010).
Where a chain is given by its changes, count along the chain named.

T1: human PTK7, full length, on the cell surface (human, UniProt Q13308 31-1070)
T1 sequence: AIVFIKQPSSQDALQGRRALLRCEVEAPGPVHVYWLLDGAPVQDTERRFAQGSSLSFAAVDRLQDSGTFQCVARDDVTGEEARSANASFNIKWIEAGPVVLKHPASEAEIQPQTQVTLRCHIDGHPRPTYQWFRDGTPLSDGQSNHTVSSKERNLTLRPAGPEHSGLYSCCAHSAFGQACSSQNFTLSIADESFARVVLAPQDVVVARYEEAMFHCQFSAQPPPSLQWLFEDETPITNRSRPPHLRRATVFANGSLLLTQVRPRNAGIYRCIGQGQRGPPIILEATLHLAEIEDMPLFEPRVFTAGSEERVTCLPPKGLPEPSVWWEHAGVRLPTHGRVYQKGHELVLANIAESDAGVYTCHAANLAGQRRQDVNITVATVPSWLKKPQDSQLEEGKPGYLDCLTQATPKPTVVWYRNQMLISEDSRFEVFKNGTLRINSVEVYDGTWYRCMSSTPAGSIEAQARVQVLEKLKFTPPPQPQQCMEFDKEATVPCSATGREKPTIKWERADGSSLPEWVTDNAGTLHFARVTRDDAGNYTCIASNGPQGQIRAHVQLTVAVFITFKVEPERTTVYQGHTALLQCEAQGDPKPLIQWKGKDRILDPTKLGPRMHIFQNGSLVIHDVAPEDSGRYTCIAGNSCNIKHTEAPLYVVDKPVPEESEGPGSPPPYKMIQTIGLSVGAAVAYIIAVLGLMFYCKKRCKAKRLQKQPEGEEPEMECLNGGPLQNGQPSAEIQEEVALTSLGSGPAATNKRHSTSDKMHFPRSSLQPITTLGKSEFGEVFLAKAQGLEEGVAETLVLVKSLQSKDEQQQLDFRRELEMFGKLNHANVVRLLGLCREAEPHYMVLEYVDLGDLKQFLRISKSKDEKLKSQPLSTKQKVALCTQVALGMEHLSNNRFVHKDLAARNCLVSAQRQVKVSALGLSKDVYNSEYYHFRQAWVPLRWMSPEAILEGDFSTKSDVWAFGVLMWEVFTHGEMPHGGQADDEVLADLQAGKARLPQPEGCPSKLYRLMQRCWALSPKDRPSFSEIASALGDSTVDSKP

T2: recombinant extracellular domain of PTK7 (human, UniProt Q13308 31-704)
T2 construct: also called PTK7 extracellular domain
T2 sequence: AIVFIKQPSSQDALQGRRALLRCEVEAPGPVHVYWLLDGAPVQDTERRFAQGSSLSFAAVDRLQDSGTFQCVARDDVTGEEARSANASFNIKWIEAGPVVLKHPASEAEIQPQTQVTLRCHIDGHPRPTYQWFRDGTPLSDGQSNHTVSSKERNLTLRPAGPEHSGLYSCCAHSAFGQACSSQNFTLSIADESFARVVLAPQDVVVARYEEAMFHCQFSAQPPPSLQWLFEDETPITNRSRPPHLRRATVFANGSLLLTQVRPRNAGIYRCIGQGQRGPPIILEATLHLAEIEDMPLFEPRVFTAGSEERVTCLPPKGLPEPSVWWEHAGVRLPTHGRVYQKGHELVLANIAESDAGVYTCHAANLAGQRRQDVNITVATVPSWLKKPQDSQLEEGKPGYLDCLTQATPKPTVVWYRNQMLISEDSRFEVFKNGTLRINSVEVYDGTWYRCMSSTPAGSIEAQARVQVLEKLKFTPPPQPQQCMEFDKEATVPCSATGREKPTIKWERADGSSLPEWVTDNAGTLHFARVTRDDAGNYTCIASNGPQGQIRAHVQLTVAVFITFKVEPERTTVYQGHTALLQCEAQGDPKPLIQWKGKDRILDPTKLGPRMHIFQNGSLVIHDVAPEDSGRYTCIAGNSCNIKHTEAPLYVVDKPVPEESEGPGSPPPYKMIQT

B1: anti-PTK7 human monoclonal antibody 4D5 (antibody, V domains shown)
VH: QVQLVESGGGVVQPGRSLRLSCAASGFTFSSYAFHWVRQAPGKGLEWVAVISYDGSIKYYADSVKGRFTISRDNSKNTLYLQMNSLRAEDTAVYYCARTYYFDYWGQGTLVTVSS
VL: EIVLTQSPDFQSVTPKEKVTITCRASQSIGSSLHWYQQKPDQSPKLLIKYASQSFSGVPSRFSGSGSGTDFTLTINSLEAEDAAAYYCHQSSSLPITFGQGTRLEIK
B2: anti-PTK7 human monoclonal antibody 7C8 (antibody, V domains shown)
VH: QVQLVESGGGVVQPGRSLRLSCAASGFTFSSYGMHWVRQAPGKGLEWVAVIWDDGSNKYYVDSVKGRFTISRDNSKNTLYLQMNSLRAEDTAVYYCARDDYYGSGSFNSYYGTDVWGQGTTVTVSS
VL: EIVLTQSPATLSLSPGERATLSCRASQSVSIYLAWYQQKPGQAPRLLIYDASNRATGIPARFSGSGSGTDFTLTISSLEPEDFAVYYCQQRSNWPPFTFGPGTKVDIK
notes: Human IgG with kappa light chain, made by a hybridoma; also called 7CS
B3: anti-PTK7 human monoclonal antibody 3G8 (antibody, V domains shown)
VH: QVQLVESGGGVVQPGRSLRLSCAASGFIFSNYAMHWVRQAPGKGLEWVAVISYDGNNKYYADSVKGRFTISRDNSKNTLYLQMNSLRAEDTAVYYCAREVWSIDNWGQGTLVTVSS
VL: DIQMTQSPSSLSASVGDRVTITCRASQGISSWLAWYQQKPEKAPKSLIYAASSLQSGVPSRFSGSGSGTDFTLTISSLQPEDFATYYCQQYNSYPRTFGQGTKVEIK
B4: anti-PTK7 human monoclonal antibody 12C6a (antibody, V domains shown)
VH: EVQLVQSGGGLVHPGGSLRLSCAGSGFTFSTYLMYWVRQAPGKTLEWVSAIGSGGDTYYADSVKGRFTISRDNAKNSLYLQMNSLRAEDMAVYYCARGLGYWGQGTLVTVSS
VL: B3 VL with R96Y, V104L
notes: Human IgG with kappa light chain, made by a hybridoma; Same VH as 12C6
B5: anti-PTK7 human monoclonal antibody 12C6 (antibody, V domains shown)
VH: B4 VH
VL: not shown
notes: Human IgG with kappa light chain, made by a hybridoma

Experiments:
[1] = molecular target: T1, human PTK7, full length, on the cell …; test: cell-based or functional assay
[2] = molecular target: T1, human PTK7, full length, on the cell …; test: flow cytometry on Wilms' tumor G-401 cells, antibody from 30 µg/ml in 1:10 dilutions
Description: The nephroblastoma Wilms' tumor cell line G-401 (ATCC Acc No. CRL-1441) was tested for binding of the HuMAb anti-PTK7 human monoclonal antibodies 12C6 and 7C8 at different concentrations. Binding of the anti-PTK7 human monoclonal antibodies was assessed by incubating 1×10⁵ cells with antibody at a starting concentration of 30 μg/ml and serially diluting the antibody at a 1:10 dilution. The cells were washed and binding was detected with a PE-labeled anti-human IgG Ab. Flow cytometric analyses were performed using a FACScan flow cytometry (Becton Dickinson, San Jose, Calif.). The anti-PTK7 monoclonal antibodies 12C6 and 7C8 bound to the nephroblastoma Wilms' tumor cell line in a concentration dependent manner, as measured by the mean fluorescent intensity (MFI) of staining.

[3] = molecular target: T1, human PTK7, full length, on the cell …; test: flow cytometry on cancer cell lines that express cell surface PTK7, antibody at 10 µg/ml, MFI
Description: Binding of the 3G8, 12C6a, 4D5 and 12C6 anti-PTK7 human monoclonal antibodies to a panel of cancer cell lines was assessed by incubating cancer cell lines with anti-PTK7 human monoclonal antibodies at a concentration of 10 μg/ml. […] An isotype control antibody was used as a negative control. The cells were washed and binding was detected with a FITC-labeled anti-human IgG Ab. Flow cytometric analyses were performed using a FACScan flow cytometry (Becton Dickinson, San Jose, Calif.).

[4] = molecular target: T2, recombinant extracellular domain of PTK7; test: ELISA on recombinant extracellular domain of PTK7, antibody from 10 µg/ml in 1:2 dilutions
Description: (§1) Recombinant extracellular domain of PTK7 was tested for binding against the anti-PTK7 human monoclonal antibodies 3G8, 4D5, 12C6 and 12C6a at different concentrations. Standard ELISA procedures were performed. The anti-PTK7 human monoclonal antibodies were added at a starting concentration of 10 μg/ml and serially diluted at a 1:2 dilution. Goat-anti-human IgG (kappa chain-specific) polyclonal antibody conjugated with horseradish peroxidase (HRP) was used as secondary antibody. Each of the anti-PTK7 human monoclonal antibodies 3G8, 4D5, 12C6 and 12C6a bound to PTK7.

[5] = molecular target: T2, recombinant extracellular domain of PTK7; test: ELISA on recombinant PTK7 extracellular domain, HRP anti-human IgG (kappa) detection
Description: as §1

Row | Binder | EC50, Hum-Zap internalization assay (3H-thymidine incorporation), Wilms' tumor cells [1] [nM] | EC50 [2] [nM] | EC50, Hum-Zap internalization assay (3H-thymidine incorporation), A-431 cells [1] [nM] | EC50, Hum-Zap internalization assay (3H-thymidine incorporation), PC3 tumor cells [1] [nM] | binding result [3] | binding result [4] | EC50 (read off the curve) [5] [µg/mL]
1 | B1 | 0.252 |  |  |  |  |  | 
2 | B2 | 0.179 | 3.43 | 0.183 | 0.265 |  |  | 
3 | B3 | 0.644 |  |  |  |  |  | 
4 | B4 |  |  |  |  | binds | binds | 
5 | B5 | 0.205 | 4.04 | 166 | 0.318 |  |  | ~0.6
